Where two headings read alike, the source gives them in different places.

Holding throughout (test): filter binding
In data set [1] the target is T1, Py-DmBLM (Drosophila Bloom's syndrome helicase) (Drosophila, UniProt Q9VGI8 1-1487).
In data set [2] the target is T1, Py-DmBLM (Drosophila Bloom's syndrome …). The source holds these as a separate data set.
Data set [3] has the same target. This is another data set of the same source.

T1 sequence (Q9VGI8 whole entry): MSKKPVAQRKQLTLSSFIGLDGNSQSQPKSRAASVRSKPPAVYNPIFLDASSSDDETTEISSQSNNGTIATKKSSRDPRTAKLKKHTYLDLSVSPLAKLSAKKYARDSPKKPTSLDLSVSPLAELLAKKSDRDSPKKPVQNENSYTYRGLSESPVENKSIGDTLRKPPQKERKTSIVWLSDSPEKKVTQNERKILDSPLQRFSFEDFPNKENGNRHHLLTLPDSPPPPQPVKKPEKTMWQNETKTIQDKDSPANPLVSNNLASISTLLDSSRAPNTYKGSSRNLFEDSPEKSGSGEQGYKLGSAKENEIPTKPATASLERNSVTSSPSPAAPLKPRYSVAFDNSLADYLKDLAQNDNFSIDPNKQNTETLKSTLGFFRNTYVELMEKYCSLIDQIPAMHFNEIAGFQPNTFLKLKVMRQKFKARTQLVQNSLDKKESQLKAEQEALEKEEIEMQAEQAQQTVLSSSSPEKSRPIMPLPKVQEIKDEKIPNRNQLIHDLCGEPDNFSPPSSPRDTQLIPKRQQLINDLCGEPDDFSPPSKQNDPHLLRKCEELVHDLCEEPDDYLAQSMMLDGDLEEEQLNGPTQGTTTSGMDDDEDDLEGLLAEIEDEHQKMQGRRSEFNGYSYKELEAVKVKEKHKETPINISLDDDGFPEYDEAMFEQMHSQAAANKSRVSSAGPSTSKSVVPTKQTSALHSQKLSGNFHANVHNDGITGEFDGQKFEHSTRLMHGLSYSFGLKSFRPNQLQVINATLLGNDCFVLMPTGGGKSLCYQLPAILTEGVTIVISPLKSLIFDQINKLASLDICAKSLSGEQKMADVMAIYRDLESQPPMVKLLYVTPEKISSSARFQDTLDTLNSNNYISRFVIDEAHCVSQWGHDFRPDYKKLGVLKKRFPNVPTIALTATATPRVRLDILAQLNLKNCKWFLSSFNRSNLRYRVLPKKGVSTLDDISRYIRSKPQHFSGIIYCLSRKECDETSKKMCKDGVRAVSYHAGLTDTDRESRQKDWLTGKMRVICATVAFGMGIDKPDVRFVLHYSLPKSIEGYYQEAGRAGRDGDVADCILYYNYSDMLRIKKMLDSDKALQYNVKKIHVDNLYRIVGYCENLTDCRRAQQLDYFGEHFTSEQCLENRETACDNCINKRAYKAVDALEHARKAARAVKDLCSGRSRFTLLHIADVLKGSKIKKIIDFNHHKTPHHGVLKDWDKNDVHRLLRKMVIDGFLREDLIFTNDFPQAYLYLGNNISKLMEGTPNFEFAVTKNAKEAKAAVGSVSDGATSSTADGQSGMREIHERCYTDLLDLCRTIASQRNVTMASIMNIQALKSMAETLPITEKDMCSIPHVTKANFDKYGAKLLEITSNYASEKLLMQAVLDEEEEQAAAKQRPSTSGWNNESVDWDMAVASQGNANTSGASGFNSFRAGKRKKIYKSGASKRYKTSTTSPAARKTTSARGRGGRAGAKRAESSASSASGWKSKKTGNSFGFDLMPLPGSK

B1: 3' Tail (o1/o2) (mixed)
DNA 1: GACGCTGCCGAATTCTGGCTTGCTAGGACATCTTTGCCCACGTTGACCCG
DNA 2: ATGTCCTAGCAAGCCAGAATTCGGCAGCGTC
With B1, in data set [1], the binding result is recorded as “binds”.
In the case of GACGCTGCCGAATTCTGGCTTGCTAGGACATCTTTGCCCACGTTGACCCG (ssDNA) [o1], in data set [2], the binding result is on record as “binds”.

B2: Forked (o1/o3) (mixed)
DNA 1: GACGCTGCCGAATTCTGGCTTGCTAGGACATCTTTGCCCACGTTGACCCG
DNA 2: CGAATAATCGTCATGTCCTAGCAAGCCAGAATTCGGCAGCGTC
In the case of B2, the binding result in data set [3] was “binds”.

(Values after paper PMC1849897.)
